Results taken from a protein production outcome set (Wang et al. 2014).

Experiment: label from the status in PepcDB records
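Note: failed if final PepcDB status was selected cloned or expressed and not failed if soluble or beyond.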

Row | Sequence | protein production
1 | MTPFENLSELPAQNTRFNGRAGMGTWLVNRLLNNIERGRLRVTLPGGGTIEKSGHQEGSEAILMLHNWRAIRRVLVNGDIGFAEGFIENDWSTPDLTALIRFAAQNQDAFARSTRGSLPMRLINRMAHALNANTRRGSRRNIEAHYDLGNEFYRQWLDPSMLYSSAIFDDTTPTLEAAQRKKLERIAEKLQLTGNNSVLEIGCGWGALAIHLATQQNADVTGITLSPSQLRWAENAAEKESKAGRIDLRLQDYRDVQGQFDNIVSVEMFEAVGESYWPSYFEMLKRCLKPGGRAVLQIISIDESRFDTYRRKADFIQKYVFPGGFLPSDSALEKSVGQAGLKLTETELFGQSYALTLAEWRQRFHARWQTISLLGFDERFRRLWDYYLCYCEAGFAEGTINVGLYTIEHG | failed
2 | MAYDDIVSSMVLELRRGTLVMLVLSQLREPAYGYALVKSLADHGIPIEANTLYPLMRRLESQGLLASEWDNGGSKPRKYYRTTDEGLRVLREVEAQWHVLCDGVGKLLETNGEDREHAER | not failed
3 | MNLSFKIFDISNTQRSKAKKVQGKKYEIFLNENEHSLITPKVSFKEILRYYYLYPKNAIPSFKLPFFKPDLSGFSTPHITWLGHSSLFISFKEYKILIDPIFNTHASPISFINKAFKNAPVYNINDFNEIFAVIITHSHFDHLDAKSVKALKDKAKFFITPLKVGNYLKSYGVSEKKIIELDWWSGIEFGDLKIMATPAQHSSSRGDGKNKTLWASFVMEFLSVDKRVFFSADGGYFTHFKKIGEYFGSFDLACLESGQFNIAWPYSHSFPEQILKEAKDLNAKAVMPIHWGRFLAGTHAWNEVVKFLYENLDLPLITPKMGEAYEVGAKFKQDFWWKEELEHHHHHH | failed
4 | MSLSKKIAVIGECMIELSEKGADVKRGFGGDTLNTSVYIARQVDPAALTVHYVTALGTDSFSQQMLDAWHGENVDTSLTQRMENRLPGLYYIETDSTGERTFYYWRNEAAAKFWLASEQSAAICEELANFDYLYLSGISLAILSPTSREKLLSLLRECRAKGGKVIFDNNYRPRLWASKEETQQVYQQMLECTDIAFLTLDDEDALWGQQPVEDVIARTHNAGVKEVVVKRGADSCLVSIAGEALVDVPAVKLPKEKVIDTTAAGDSFSAGYLAVRLTGGSAENAAKRGHLTASTVIQYRGAIIPREAMPAEGHHHHHH | not failed
5 | STERRRDELSEEINNLREKVMKQSEENNNLQSQVQKLTEENTTLREQVEPTPEDEDDDIELRGAAAAAAPPPPIEEECPEDLPEKFDGNPDMLAPFMAQCQIFMEKSTRDFSVDRVRVCFVTSMMTGRAARWASAKLERSHYLMHNYPAFMMEMKHVFEDPQRREVAKRKIRRLRQGMGSVIDYSNAFQMIAQDLDWNEPALIDQYHEGLSDHIQEELSHLEVAKSLSALIGQCIHIERRLARAAAARKPRSPPRALVLPHIASHHQVDPTEPVGGARMRLTQEEKERRRKLNLCLYCGTGGHYADNCPAKASKSSPAGNSPAPL | not failed
6 | MLPHSGRMVLIDRITRYGDDFVEAGAQVKPDHILLAGGMLPYTAFIELMAQAVGAYAGIQARKNARPVRLGFLPGTRKLEIFAQSVPVGTHLPATAHMSIQDAGVWACPTANCVGRMRRKLRPEHSFQTAFWHAPHSTCTAPNTMTEQLTPSEQAHIRRTTMTETVLITGSNRGIGKAAALEHHHHHH | failed
7 | LLNMKRAETGKALSPLQIQELQYMLEDFSPELIHEALKEAVSQGKANFAYIKVILNRWKQDNLLTVELVRN | failed
8 | IAALSRDITPQQDGSVIVDASITIRHLNRMMGWSLPLIGPRTLSGLIIEHLGYIPPPDSCLVIDHYHIEILRVSDNMIRGVKMIKTN | failed
9 | MGSSHHHHHHSSGLVPRGSHMLLREVTREERKNFYTNEWKVKDIPDFIVKTLELREFGFDHSGEGPSDRKNQYTDIRDLEDYIRATAPYAVYSSVALYEKPQEMEGWLGTELVFDIDAKDLPLRRCEHEPGTVCPICLNDAKEIVRDTVIILREELGFNDIHIIYSGRGYHIRVLDEWALKLDSKSRERILSFVSASEIEDVEEFRKLLLNKRGWFVLNHGYPRAFRLRFGYFILRIKLPHLINAGIRKSIAKSILKSKEEIYEEFVRKAILAAFPQGVGIESLAKLFALSTRFSKSYFDGRVTVDLKRILRLPSTLHSKVGLIAKYVGTNERDVMRFNPFKHAVPKFRKEEVKVEYKKFLESLGT | not failed
10 | MDTLKVRDAQEVEDAVRAAIANEQPIEIVGHGSKRSIGQLMSTNAVLELSALNAVTAYEPNELIITVQAGAPMADVLSLIDSKNQQFAFEPMDTATLLGTTPGAGTVAGMISAGLAGPRRIKAGGARDHLLGANAVSGFGESFKAGGKVVKNVTGYDLCKLLAGSWGTLAVMTEVTLKVTPRPESERTLVLRGLADVVANKAMTAALGSPYDVTGAAHLPGSALRTTAGALAEIAQPDQSLTLLRLEGITSSASHRAQSLRAALKSFGDAELIEDDASAALWRAVRDVEPFAASGPRALWPVWRIVCPPAAGGAFGEQLSRESGGEVIYDWGGGLIWAALPPATDGHAKALRQRVEKIGGHATLIRGSDAVRAGIDIFHPQPAGLAALGSRVKRSFDPTNILNRGRMSRGSAT | failed
11 | PDVDGMITLKVDNLTYRTSPDSLRRVFEKYGRVGDVYIPREPHTKAPRGFAFVRFHDRRDAQDAEAAMDGAELDGRELRVQVARYGRRDL | not failed
12 | MSSHPYVTQQNTPLADDTTLMSTTDLQSYITHANDTFVQVSGYTLQELQGQPHNMVRHPDMPKAAFADMWFTLKKGEPWSGIVKNRRKNGDHYWVRANAVPMVREGKISGYMSIRTRATDEE | failed
13 | VQSKNPVLIEGFPGIGLVGNIASQHIIEELNMEYIGSIDSRYFPSIAVLYEGLINMPVRIYENVEHNLIIVISDIPISHSVSYDVSNALVDWAEAINVKEIASIAGIAIMDGGHKVFGAATTPEMLDKIRDKVEIFQMGTISGISGSVMAECLLRGIPAISLLGATRTQNPDPRAASSVIGVLNELYGLSISTDRLIEQAERIEIELQRLAEDVQATERKGEVKKEFPMYG | failed
14 | MSEVNKKVQDGVDDYLEEEDFGQLLEAFDKSREEATTEGVIVEIKNDEVYVDIGKKSEGILALSEIQGDNSKLLFNVGDSIKVAVMGSRGGRSLLSHKKALRKEKVIEFIKNYQENQDDIFTVKVVGKNKGGLIVVDENDVEFFLPKSQYGFKETNNIIGKTFKVKIIKIDKDEQSIIVSRKKTLDDERRKRKELINNVAQQEDLIEGIVKKITTYGMFVDVGGVDGLVHYSEISYKGPVNPGTLYKEGDKVPVKVIKYDKERKHLSLSIKAALPDPWSEIKDTLDIGDTIKVIVSNIEPYGAFVDLGNDIEGFLHISEISWDKNIKNPKDYINKGQEIDVEVIEINPNERRLRVSLRNLLSRPFDEFMKSYKIADVVEGEITSVTSFGAFVKLGGIEGLLHNEDASWDRNDKCKDKFSQGDKIKVKIIKIDEENQKISLSTKELSSSPVQEYAKIHKVGDIVKGAIRDIKDFGVFVELSKNVDALIHKEDISTSMLENLKIGDDIEAAIVFIDEKKNRIRLSVKNLVRIKEREVLNEINNDDKVTLGDIIKDQLALEHHHHHH | not failed
15 | MSFVLWLVGKKCIVDVGTNGKNSWKVGGKDGVACRDHSGFRLEKLGLFCWWKLQKDGCGQKLNRRKDHRAFPLPSVVNERPRKLND | failed
16 | MGRAFEYRRAAKEKRWDKMSKVFPKLAKAITLAAKDGGSEPDTNAKLRTAILNAKAQNMPKDNIDAAIKRASSKEGNLSEITYEGKANFGVLIIMECMTDNPTRTIANLKSYFNKTQGASIVPNGSLEFMFNRKSVFECLKNEVENLKLSLEDLEFALIDYGLEELEEVEDKIIIRGDYNSFKLLNEGFESLKLPILKASLQRIATTPIELNDEQMELTEKLLDRIEDDDDVVALYTNIE | failed
17 | MSNLISRILTALIFGFITLCLTWVGGTLFFLFVWVIGGFILYEWMSITKEKWHVLQKILASVFYLVFGAFLISNASASLIFCILIALAALLAIGPMRKSVWVFFGFLYVCFPVVALSFLRGHEPLGFWVVIFLFTIVWGTDIAGYFSGRAFGGPKLAPQFSPNKTWMGAIGGTFVGVSGGILIAFQFFDLNSAVFFVLLLALILSIVSQMSDLGQSWLKRQFSVKDSGSLLPGHGGFMDRMDGLVGAAFLLYLIGSFMSNMDTPFNLFCMV | failed
18 | MVESWALTTPPIDIVNQYLFFIKRKTNYMATYYYALASQKFLLEEEPFEEVLKERRRDYGEKNKEIDFWQVIQPAFLNAPELAEAKAKAPEKNVAIVSTNKSFIVWVKLRLEYVLTGEFEAPSDAIPDPLASLDLEHHHHHH | failed
19 | MASWSLRTVPPKMGRVVNCQNHITAGGGRRTLMKIILTGATGFVGCSLVPLLHQQGHELTLLVRSVSKAQRLFAPGSFPQLKAIAYEATKSGDWQKVVDGQDAVINLAGEPISERWTEAYKAEIFDSRKLGTEKLVEAIAKADRKPQVMISGSAIGYYGTSETATFTESSKPGDDFLAEVCQAWENAAHQVEQLGVRLVVFRIGIVLGADGGALAKMLPPFKLFAGGPLGSGEQWFSWIDRRDLIALIDKALTDSTLRGTYNATAPNPVKMKEFCHTLGKVLARPSWLPVPDIALELLLGEGAKLVLEGQEVLPGAISKTDFQFQAPDLETSLRQILGS | failed
20 | MDYPVWQLWGINGGLLVAIISVLHVFVAQFAVGGGFLLVHAATRAERAGSAEATFWVKRFTRFFLLLSMVFGGVSGVGIWVIISLISPAATSLLVHRFVYAWATEWVFFLGEIVALLVYYYGFGKMRFEDHRNVGLLYGLFAYLSLFMINGIITFMLTPGAWMQTQGFWDGFFNPTFWPSLLFRSALCAMLSGLFGLVWASLIDDERARELMTGVTRLWALVPIPFMAVGAWWYLGALPAPQLEMVLRRTADIRPFLEAFPWVLAALMVGGLAFFTRLPSGARVPVAALLLVLGLCQVGTFEWVRETGRRPWIVHGVIWSNGITPEAGAKSDLEGMLKVARWSGVKQVAEANMHEAGRELWQVQCANCHGLGAPMIDILPRIANRPLTGVEALITGQGALQGYMPPFVGTPAERRALATYLVNERDARRH | failed
21 | MLRVFHFYGMLRLPRSGIEQSLKGERCTVSTQIRILPENLTNKIAAGEVVERPASVVKELVENSLDAGCRDIIVEIEAGGRRLIRVTDDGSGMSREDALLSLERHATSKIASDDDLFSLCTLGFRGEALPSIASVSRFSLATRQRGAIEGTEIYAEGGRIKEVKACGMAEGTVITVRNLFFNTPARLKFMKSAETEAGHVGDLLTRLAISRPEVRFTYVNDGKTVFRALNGTMEERVAALLGRTIAGALYPLDSTVEGVTVRGLVARPDVSRSAAGHLYTFINGRFIRDRVVQHAVLQAYRNFLERGRYPVVVLFIQVPAGDVDVNVHPTKHEVRFRQQGVVHDVIQGVIEEALRPTPWLRKESQSTVSSPPPERREPATSSERVAEVRELLVNYRPSPAPSRPFFQPLPAVVPAPDQSAEEPDRPMDRGYFSRLAIIGQFHASYILCQDGSDLVIIDQHAAHERVAFERLKAQFAAGGVEGQGLLFPDTLELSHREVAELREHGEELRRIGFDLDEFGGTTWVVKGVPRLLAGKDYLRILRDTLEEFQAVGANRSVADAVEEILTRIACHSVVRGEHPLTTAQIEALFAQMDATDYSTNCPHGRPVLQRLTLAEVERMFKR | failed
22 | TKKDVHDLFLNHVNSNAVKTRKMMGEYIIYYDSVVIGGLYDNRLLVKATKSVRHQLQDNTLVSPYPGAKEMILIPDITEAINLTNLFELIKNDLKN | failed
